# Biological target: recombinant hPD-L2 hIgG1 Fc-fusion protein (R&D Systems) (human) (UniProt Q9BQ51)
# Assay: flow cytometry, control HEK 293 cells, one dose of hPD-L2 Fc fusion
# UniProt Q9BQ51, sequence (Q9BQ51 20-219 limits assumed): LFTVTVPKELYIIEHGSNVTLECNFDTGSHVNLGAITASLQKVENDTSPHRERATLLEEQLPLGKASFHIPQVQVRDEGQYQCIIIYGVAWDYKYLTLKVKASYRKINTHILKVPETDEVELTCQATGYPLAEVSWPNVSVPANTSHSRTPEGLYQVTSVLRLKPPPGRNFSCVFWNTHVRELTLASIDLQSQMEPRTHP
row,average binding normalized to wild type (AVE-hPD-L2) (relative to wild type),Substance
1,0.00648,Control (row of Table 2)

# Biological target: recombinant hPD-L1 hIgG1 Fc-fusion protein (R&D Systems) (human) (UniProt Q9NZQ7)
# Assay: flow cytometry, control HEK 293 cells, one dose of hPD-L1 Fc fusion
# UniProt Q9NZQ7, sequence (Q9NZQ7 19-239 limits assumed): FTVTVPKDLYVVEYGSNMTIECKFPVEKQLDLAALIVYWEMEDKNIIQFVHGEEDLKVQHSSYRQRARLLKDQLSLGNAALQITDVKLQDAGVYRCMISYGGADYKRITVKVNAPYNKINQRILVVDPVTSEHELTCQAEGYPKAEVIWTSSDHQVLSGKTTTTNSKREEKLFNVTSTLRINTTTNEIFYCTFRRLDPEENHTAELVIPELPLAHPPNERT
row,average binding normalized to wild type (AVE-hPD-L1) (relative to wild type),Substance
1,0.0144,Control (row of Table 2)

# Biological target: recombinant hPD-L2 hIgG1 Fc-fusion protein (R&D Systems) (human) (UniProt Q9BQ51)
# Assay: flow cytometry, HEK 293 cells displaying the PD-1 construct, one dose of hPD-L2 Fc fusion, percent of PD-1-positive cells bound
row,average binding normalized to wild type (AVE-hPD-L2) (relative to wild type),Substance
1,0.0334,"human PD-1 mutant Y68R (hPD-1 Type I mCherry, on HEK 293 cells) (from UniProt Q15116 25-168) (receptor)"
2,0.307,"human PD-1 mutant I134T (hPD-1 Type I mCherry, on HEK 293 cells) (from UniProt Q15116 25-168) (receptor)"
3,0.705,"human PD-1 mutant G124M (hPD-1 Type I mCherry, on HEK 293 cells) (from UniProt Q15116 25-168) (receptor)"
4,0.82,"human PD-1 mutant E136N (hPD-1 Type I mCherry, on HEK 293 cells) (from UniProt Q15116 25-168) (receptor)"
5,0.557,"human PD-1 mutant G124Y (hPD-1 Type I mCherry, on HEK 293 cells) (from UniProt Q15116 25-168) (receptor)"
6,0.711,"human PD-1 mutant I126V (hPD-1 Type I mCherry, on HEK 293 cells) (from UniProt Q15116 25-168) (receptor)"
7,0.0223,"human PD-1 mutant Y68K (hPD-1 Type I mCherry, on HEK 293 cells) (from UniProt Q15116 25-168) (receptor)"
8,0.00438,"human PD-1 mutant N66E (hPD-1 Type I mCherry, on HEK 293 cells) (from UniProt Q15116 25-168) (receptor)"
9,1.13,"human PD-1 mutant D77E (hPD-1 Type I mCherry, on HEK 293 cells) (from UniProt Q15116 25-168) (receptor)"
10,0.642,"human PD-1 mutant T76E (hPD-1 Type I mCherry, on HEK 293 cells) (from UniProt Q15116 25-168) (receptor)"
11,0.0105,"human PD-1 mutant I134D (hPD-1 Type I mCherry, on HEK 293 cells) (from UniProt Q15116 25-168) (receptor)"
12,0.954,"human PD-1 mutant T76S (hPD-1 Type I mCherry, on HEK 293 cells) (from UniProt Q15116 25-168) (receptor)"
13,0.999,"human PD-1 mutant E84Y (hPD-1 Type I mCherry, on HEK 293 cells) (from UniProt Q15116 25-168) (receptor)"
14,1,"human PD-1 mutant S73K (hPD-1 Type I mCherry, on HEK 293 cells) (from UniProt Q15116 25-168) (receptor)"
15,0.202,"human PD-1 mutant Y68Q (hPD-1 Type I mCherry, on HEK 293 cells) (from UniProt Q15116 25-168) (receptor)"

# More lines, now with the values behind:
row,Substance,average binding normalized to wild type (AVE-hPD-L2) (relative to wild type)
1,"human PD-1 mutant E136Q (hPD-1 Type I mCherry, on HEK 293 cells) (from UniProt Q15116 25-168) (receptor)",0.967
2,"human PD-1 mutant S73R (hPD-1 Type I mCherry, on HEK 293 cells) (from UniProt Q15116 25-168) (receptor)",1.11
3,"human PD-1 mutant T76D (hPD-1 Type I mCherry, on HEK 293 cells) (from UniProt Q15116 25-168) (receptor)",0.205
4,"human PD-1 mutant T76N (hPD-1 Type I mCherry, on HEK 293 cells) (from UniProt Q15116 25-168) (receptor)",0.998
5,"human PD-1 mutant I134F (hPD-1 Type I mCherry, on HEK 293 cells) (from UniProt Q15116 25-168) (receptor)",1.11
6,"human PD-1 mutant L128V (hPD-1 Type I mCherry, on HEK 293 cells) (from UniProt Q15116 25-168) (receptor)",1.03
7,"human PD-1 mutant Y68N (hPD-1 Type I mCherry, on HEK 293 cells) (from UniProt Q15116 25-168) (receptor)",0.108
8,"human PD-1 mutant T76Q (hPD-1 Type I mCherry, on HEK 293 cells) (from UniProt Q15116 25-168) (receptor)",0.98
9,"human PD-1 mutant N66Q (hPD-1 Type I mCherry, on HEK 293 cells) (from UniProt Q15116 25-168) (receptor)",0.0105
10,"human PD-1 mutant I134N (hPD-1 Type I mCherry, on HEK 293 cells) (from UniProt Q15116 25-168) (receptor)",0.0534
11,"human PD-1 mutant G124V (hPD-1 Type I mCherry, on HEK 293 cells) (from UniProt Q15116 25-168) (receptor)",1.16
12,"human PD-1 mutant T76Y (hPD-1 Type I mCherry, on HEK 293 cells) (from UniProt Q15116 25-168) (receptor)",1.11
13,"human PD-1 mutant K131H (hPD-1 Type I mCherry, on HEK 293 cells) (from UniProt Q15116 25-168) (receptor)",1.58
14,"human PD-1 mutant Q75N (hPD-1 Type I mCherry, on HEK 293 cells) (from UniProt Q15116 25-168) (receptor)",1.13
15,"human PD-1 mutant I134Q (hPD-1 Type I mCherry, on HEK 293 cells) (from UniProt Q15116 25-168) (receptor)",0.0252
16,"human PD-1 mutant K78R (hPD-1 Type I mCherry, on HEK 293 cells) (from UniProt Q15116 25-168) (receptor)",0.125
17,"human PD-1 mutant L128W (hPD-1 Type I mCherry, on HEK 293 cells) (from UniProt Q15116 25-168) (receptor)",1.03

# Reference: US20220047729A1
